Laboratory results reported in paper PMC9694015.

Key:
[1] = biological target: bacterial chalcone isomerase (CHI) from Eubacterium ramulus (Eubacterium ramulus) (UniProt V9P0A9); test: crystal structure; hanging drop at 293 K, 6.8 mg/mL protein in 50 mM sodium phosphate pH 6.8; reservoir ammonium sulphate (1.8 M for CHI, 1.5 M for CHI_H33A), 0.2 M NaCl, 0.1 M HEPES pH 7.5; crystals soaked 10 min with 2.5 mM (+)-taxifolin; data at 100 K; hexamer seen in the asymmetric unit
[2] = biological target: bacterial chalcone isomerase (CHI) from Eubacterium ramulus, His33Ala variant (Eubacterium ramulus) (UniProt V9P0A9); test: as above

| Substance | stoichiometry N [1] | stoichiometry N [2] |
| --- | --- | --- |
| bacterial chalcone isomerase (CHI) from Eubacterium ramulus (from UniProt V9P0A9 1-283) (enzyme) | 6 |  |
| bacterial chalcone isomerase (CHI) from Eubacterium ramulus, His33Ala variant (from UniProt V9P0A9 1-283) (enzyme) |  | 6 |
